Laboratory results published in patent US20020169291A1.

Key:
[1] = target: mature human IL-18 K89A mutant (human) (UniProt Q14116); experiment: cell-based or functional assay
[2] = target: mature human IL-18 WT, generated by factor Xa cleavage of proIL-18 (ICE/Xa) (human) (UniProt Q14116); experiment: cell-based or functional assay
Sequence of mature human IL-18 WT, generated by factor Xa cleavage of proIL-18 (ICE/Xa) (human) (Q14116 37-193 limits assumed): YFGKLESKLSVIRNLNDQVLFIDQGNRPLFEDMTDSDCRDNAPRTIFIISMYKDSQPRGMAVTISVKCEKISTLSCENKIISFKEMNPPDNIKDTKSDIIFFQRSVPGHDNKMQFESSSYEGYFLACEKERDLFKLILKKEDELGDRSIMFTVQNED

Sequence of mature human IL-18 K89A mutant (human) (Q14116 37-193 K89A): as the sequence (Q14116 37-193 limits assumed) above, with K53A counted along it

"a" isoform of CHO cell produced recombinant his-6-tagged human IL-18BP (from UniProt O95998 31-194)
IL-18BP concentration giving a statistically significant reduction of IFN-γ co-induction in NKO cells [1]: 120 ng/mL | IL-18BP concentration that neutralized IFN-γ induction in PBMCs [1]: 120 ng/mL | 50% inhibitory concentration of IL-18BP for co-induction of IFN-γ from NKO cells [2]: 15 ng/mL | amount of IL-18BP needed to neutralize IFN-γ induction in PBMCs [2]: 3.7 ng/mL
